Test results from patent US20240400618A1.
Like-named read-outs stand apart in the source and are kept apart here.

Columns and labels:
[1] = molecular target: pxEBN4-ACE2-AAA-His (human) (UniProt Q9BYF1)
[2] = molecular target: pxEBN4-ACE2-AAA-His (human) (UniProt Q9BYF1); remark: listed apart in the source
Further: test concentration or dose not given here.

Substance | Response, shift in Wavelength (nm) [1] [nm] | Response, shift in Wavelength (nm) [2] [nm]
pxENB1-His-TEV-FLS-TN (from UniProt P0DTC2 14-1213) (ligand) | 0.0257 | –
pxENBCP20-FLS-CT-His-TST (from UniProt P0DTC2 15-1213) (ligand) | – | 0.0719
pxENB17-RBD-His (from UniProt P0DTC2 319-541) (ligand) | 0.301 | –
pxEBNCP14-tPa-FLS-CT-His (from UniProt P0DTC2 16-1213) (ligand) | 0.529 | –
pxENB14-His-TEV-RBD (from UniProt P0DTC2 319-541) (ligand) | 0.304 | –
pxENBCP17-FLS-CT-His-SBP (from UniProt P0DTC2 15-1213) (ligand) | – | 0.0382
pxENBCP19-FLS-CT-His-StrepTagII (from UniProt P0DTC2 15-1213) (ligand) | – | 0.042
pxENB2-His-TEV-FLS-CT (from UniProt P0DTC2 14-1213) (ligand) | 0.344 | –
pxENB12-FLS-His (from UniProt P0DTC2 15-1213) (ligand) | 0.127 | –
pxENBEP17_TPA_Nuc(1-182)_Spike (15-1216, GAAS, PP)_10xHis (ligand) | 0.232 | –
pxENB5-his-TEV-FLS (from UniProt P0DTC2 14-1213) (ligand) | 0.185 | –
pxEBNCP15-mIgGHC-FLS-CT-His (from UniProt P0DTC2 16-1213) (ligand) | 0.492 | –
pxEBNCP16-IL2-FLS-CT-His (from UniProt P0DTC2 16-1213) (ligand) | 0.145 | –
pxENBEP18_Spike_Nuc(1-182)_10xHis (ligand) | 0.277 | –
pxENB8-FLS-TN-His (from UniProt P0DTC2 15-1213) (ligand) | 0.0591 | –
pxENB9-FLS-CT-His (from UniProt P0DTC2 15-1213) (ligand) | 0.555 | –
